Patent US20150216933A1, “HEMATOPOIETIC STEM CELL GROWTH FACTOR” (DUKE UNIVERSITY, priority 2008, published 2015)

What was measured:
Assay type in all cases: cell-based, mouse
PTEN = assay: qRT-PCR of KSL cells after culture with TSF+PTN; conditions: HSCs following PTN exposure
Method: (§1) FIGS. 7A and 7B. […] (FIG. 7B) BM KSL cells were placed in culture with TSF (black bars) or TSF+100 ng/mL PTN (gray bars)×7 days and KSL cells were then isolated via FACS-sorting at day +7 for qRT-PCR analysis and comparison of gene expression. […] All comparisons were one tailed t tests.
(§2) RT-PCR analyses of PTN in ECs and HES-1, GFI-1 and PTEN in BM KSL cells and FACS-sorted KSL cells following culture were performed using a 2-step RTPCR reaction as previously described (Chute et al, Proc Natl Acad Sci USA 103, 11707-12 (2006)). Conditioned medium (CM) was generated from HUBECs and non-brain ECs as previously described (Chute et al, Blood 100:4433-9 (2002), Chute et al, Blood 105: 576-83 (2005)) and ELISA for PTN was performed following manufacturer's guidelines.
(§3) In order to determine a potential mechanism through which PTN mediates HSC expansion, an examination was made as to whether PTN altered pathways that are known to be affected by RPTPβ/ζ (Meng et al, Proc Natl Acad Sci USA 97: 2603-8 (2000), Stoica et al, J Biol Chem 276:16772-9 (2001), Landgraf et al, J Biol Chem 283:25036-45 (2008), Deuel et al, Arch Biochem Biophys 397:162-71 (2002)). Canonical PTN signaling occurs via binding and inactivation of RPTPβ/ζ (Meng et al, Proc Natl Acad Sci USA 97: 2603-8 (2000)), which can facilitate the tyrosine phosphorylation of several intracellular substrates, including Akt and β-catenin (Souttou et al, J Biol Chem 272:19588-93 (1997), Gu et al, FEBS Lett 581:382-8 (2007)). […] BM 34^− KSL cells were treated with TSF with and without 100 ng/mL PTN in the presence and absence of 10 μM wortmannin, a PI 3-kinase inhibitor (Souttou et al, J Biol Chem 272:19588-93 (1997)).

HES-1 = assay: qRT-PCR of KSL cells after culture with TSF+PTN; conditions: TSF+100 ng/mL PTN x 7 days vs TSF alone
Method: as §1, §2, §3

GFI-1 = assay: qRT-PCR of KSL cells after culture with TSF+PTN; conditions: TSF+100 ng/mL PTN x 7 days vs TSF alone
Method: as §1, §2, §3

BM 34−KSL cells = assay: Liquid suspension culture of BM 34−KSL cells with TSF with and without PTN x 7 days
Method: The above “loss of function” studies strongly implicated PTN as a secreted growth factor for HSCs.
Purified BM 34^−KSL cells were isolated from C57Bl6 and B6.SJL mice (Jackson Laboratory, Bar Harbor, Me.) via flow cytometric cell sorting as previously described (Reya, et al, Nature 423:409-14 (2003), Salter et al, Blood 113:2104-7 (2009)). Liquid suspension cultures of BM 34^−KSL cells were supplemented with IMDM+10% FBS+1% pcn/strp+20 ng/ml thrombopoietin, 120 ng/ml SCF, and 50 ng/ml flt-3 ligand (“TSF” media) with and without recombinant (human) PTN (R&D Systems, Minneapolis, Minn.). Non-contact HUBEC cultures were conducted using 0.4 μm transwell inserts (Corning, Lowell Mass.) and supplemented with TSF media with and without goat anti-PTN or isotype control antibody (R&D). Phenotypic analysis for KSL cells was performed as previously described (Chute et al, Blood 109:2365-72 (2007), Salter et al, Blood 113:2104-7 (2009)).
Since PTN has no known function in regulating hematopoiesis (Meng et al, Proc Natl Acad Sci USA 97: 2603-8 (2000)), an examination was first made as to whether BM stem/progenitor cells expressed one or more of the PTN receptors, receptor protein tyrosine phosphatase β/ζ (RPTP β/ζ), Syndecan or anaplastic lymphoma kinase (ALK) (Stoica et al, J Biol Chem 276:16772-9 (2001), Landgraf et al, J Biol Chem 283:25036-45 (2008)). The majority of BM MNCs and c-kit+sca-1^+lin^− (KSL) stem/progenitor cells expressed RPTP β/ζ (n=3, mean 87.0%±8.8 and 89%, respectively; FIG. 6A), whereas neither population expressed Syndecan or ALK (data not shown). In order to determine whether PTN might be a growth factor for HSCs, C57Bl6 BM CD34^−KSL cells, which are highly enriched for HSCs (Kiel et al, Nat Rev Immunol 8:290-301 (2008), Salter et al, Blood 113:2104-7 (2009)), were isolated by FACS and placed in liquid suspension culture with 20 ng/mL thrombopoietin, 120 ng/mL SCF and 50 ng/mL Flt-3 ligand (“TSF”) with or without 10, 100 or 1000 ng/mL PTN.

β-catenin = β-catenin assays; conditions: 34−KSL cells treated with PTN (data not shown)
Description: as §3

[1] = 100 ng/mL PTN added to TSF, 7 days
[2] = increasing doses (10, 100, 1000 ng/mL) of rPTN with TSF, Example 1

B1: PTN: Pleiotrophin, heparin binding growth factor; recombinant human PTN purchased from R&D systems (protein, UniProt P21246 33-168, looked up)
Pleiotrophin: GKKEKPEKKVKKSDCGEWQWSVCVPTSGDCGLGTREGTRTGAECKQTMKTQRCKIPCNWKKQFGAECKYQFQAWGECDLNTALKTRTGSLKRALHNAECQKTVTISKPCGKLTKPKPQAESKKKKKEGKKQEKMLD
expression of PTEN (PTEN): down-modulated | HES-1 expression (HES-1): upregulation | GFI-1 expression (GFI-1): upregulation | increase in total KSL stem/progenitor cells compared to TSF alone (BM 34−KSL cells; [1]): 17.7 fold | increase in total cells compared to TSF alone (BM 34−KSL cells; [1]): 6.4 fold | total cells, % KSL cells and total KSL cells (BM 34−KSL cells; addition of 10 to 100 ng/mL PTN to TSF): dose responsive increase | KSL cells in culture compared to the progeny of cytokines alone (BM 34−KSL cells; [2]): significant increase | total cells in culture compared to the progeny of cytokines alone (BM 34−KSL cells; [2]): significant increase | activated form of β-catenin (β-catenin): no increase
